Experimental data reported in paper PMC6003988, “VRK1 and AURKB form a complex that cross inhibit their kinase activity and the phosphorylation of histone H3 in the progression of mitosis” (Cellular and Molecular Life Sciences: CMLS, 2018).
Blank lines part the entries; values can stand above or below the binder they belong to.

Target: T1, V5–AURKB, expressed in HEK293T cells (UniProt Q96GD4 1-344)
T1 construct: Aurora kinase B (AURKB), wild type; plasmid pDEST3.1_nV5-AurkB provided by Malumbres [65]; also called Aurora B; Aurora kinase B; source: HEK293T, transfected, in lysate
T1 sequence (Q96GD4 whole entry): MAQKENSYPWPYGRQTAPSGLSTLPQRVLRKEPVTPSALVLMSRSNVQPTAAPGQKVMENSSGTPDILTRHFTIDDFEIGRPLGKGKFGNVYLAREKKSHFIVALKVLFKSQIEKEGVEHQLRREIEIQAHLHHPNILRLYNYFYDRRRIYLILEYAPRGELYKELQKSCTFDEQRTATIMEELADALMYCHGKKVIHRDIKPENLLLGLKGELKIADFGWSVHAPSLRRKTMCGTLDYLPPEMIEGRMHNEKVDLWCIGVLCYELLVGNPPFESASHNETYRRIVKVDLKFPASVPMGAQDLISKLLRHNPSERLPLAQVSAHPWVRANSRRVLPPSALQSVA
Assay: co-IP; immunoprecipitation of V5-AURKB from extracts of HEK293T cells co-transfected with GST-VRK1 or HA-VRK1, WT or kinase-dead; VRK1 detected by immunoblot, quantified
Conditions: partners not purified

fold binding against active VRK1: ~3 fold
B1: HA–VRK1–K179E, kinase-dead, expressed in HEK293T cells (enzyme, human, UniProt Q99986 1-396, looked up)
chain: MPRVKAAQAGRQSSAKRHLAEQFAVGEIITDMAKKEWKVGLPIGQGGFGCIYLADMNSSESVGSDAPCVVKVEPSDNGPLFTELKFYQRAAKPEQIQKWIRTRKLKYLGVPKYWGSGLHDKNGKSYRFMIMDRFGSDLQKIYEANAKRFSRKTVLQLSLRILDILEYIHEHEYVHGDIEASNLLLNYKNPDQVYLVDYGLAYRYCPEGVHKEYKEDPKRCHDGTIEFTSIDAHNGVAPSRRGDLEILGYCMIQWLTGHLPWEDNLKDPKYVRDSKIRYRENIASLMDKCFPEKNKPGEIAKYMETVKLLDYTEKPLYENLRDILLQGLKAIGSKDDGKLDLSVVENGGLKAKTITKKRKKEIEESKEPGVEDTEWSNTQTEEAIQTRSRTRKRVQK
notes: Vaccinia-related kinase 1 (VRK1), kinase-dead mutant K179E; plasmid pCEFL-HA-VRK1-K179E; also called HA–VRK1–KD; pCEFL–HA–VRK1–K179E; source: HEK293T, transfected, in lysate

fold binding against active VRK1: ~3 fold
B2: GST–VRK1 (K179E), kinase inactive, expressed in HEK293T cells (enzyme, human, UniProt Q99986 1-396, looked up)
chain: B1 chain
notes: Vaccinia-related kinase 1 (VRK1), kinase-dead mutant K179E; also called GST-VRK1 KD; kinase-dead VRK1 (K179E); source: HEK293T, transfected, in lysate
